Assay results reported in the supplement of paper PMC9732359.
± gives the uncertainty stated by the source.

Assay: protein stability index of a GFP-peptide fusion (yeast GPS) (PSI 1-4); higher = more stable; sorted into four equal gates, so the index is relative within each strain
In short: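 Peptides tiling yeast proteins in 17-residue segments were fused downstream of GFP, with Cherry expressed from the same plasmid. As a pooled library in yeast, mid-log cultures grown in leucine-free medium were sorted into four equal gates by GFP/Cherry fluorescence ratio. Gate plasmids were PCR-amplified and Illumina-sequenced, and barcodes linked reads to strains. Each peptide received a protein stability index equal to the sum of each gate's read frequency times its gate number.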

Sequence	protein stability index (doa10∆)	protein stability index (pdr5∆)	protein stability index (san1∆)	protein stability index (ubr1∆)
LQGQMEKIMILLVPLAL [CSN12]	1.84 ± 0.048	1.63 ± 0.04	1.3 ± 0.074	1.52 ± 0.045
GEMERDCMIAHGAASFL [RPB2]	3.04 ± 0.13	3.08 ± 0.085	3.04 ± 0.073	2.76 ± 0.089
FLVEYEGQENNYNSTSR [SIR4]	2.85 ± 0.093	2.76 ± 0.08	2.29 ± 0.1	3.24 ± 0.052
LKSGLPLSGLLFKNYRF [YMR129W/POM152]	3.65 ± 0.18	2.52 ± 0.2	3.63 ± 0.057	–
VGACTDEEMTISQKLHD [RRP43]	3.14 ± 0.1	3.04 ± 0.089	3.04 ± 0.084	3.12 ± 0.059
HKQGSSYVAVLGMGKAV [POP7]	1.69 ± 0.077	1.71 ± 0.053	1.66 ± 0.082	1.86 ± 0.062
ITSGGFLLKAYINVSRG [SRB5]	2.23 ± 0.17	2.48 ± 0.12	2.32 ± 0.15	2.53 ± 0.15
PQYINYSSIPSLQDSII [SSN2]	2.97 ± 0.13	2.79 ± 0.12	2.9 ± 0.21	3.16 ± 0.086
VNTEKKTIEVTAEINCF [RPN3]	–	1.35 ± 0.11	1.78 ± 0.21	1.62 ± 0.16
RGTDIDRINYTETALMN [SRB5]	3.02 ± 0.26	2.98 ± 0.11	2.69 ± 0.082	2.73 ± 0.12
SAAMSIDKLSDVVMKAT [PRP8]	2.46 ± 0.048	2.6 ± 0.046	2.45 ± 0.047	2.37 ± 0.042
ELLIYKKSQCKKKTTLE [YIL149C/MLP2]	3.03 ± 0.21	3.29 ± 0.13	2.95 ± 0.083	3.19 ± 0.15
MGVPIYGIVAMAATATD [FAS2]	1.34 ± 0.068	1.52 ± 0.052	1.54 ± 0.089	1.47 ± 0.051
EVRILPRQRMEEVVSND [PRP8]	2.52 ± 0.11	2.73 ± 0.084	2.69 ± 0.064	2.57 ± 0.084
DTKKVKESPANDQASNE [YIL149C/MLP2]	3.17 ± 0.13	3.29 ± 0.1	3.12 ± 0.2	3.15 ± 0.19
VASQTVKKVIEINPFLL [PRE2]	–	3.07 ± 0.17	2.44 ± 0.11	–
EAIRDPKNSSSPVQIAF [SSN8]	2.55 ± 0.17	2.96 ± 0.15	1.92 ± 0.22	2.98 ± 0.12
NTEQGDSDELGGESMEG [SNM1]	3.45 ± 0.1	3.54 ± 0.11	3.4 ± 0.093	3.39 ± 0.085
TNVYSKDLVIVSNLMGR [RPB3]	3.04 ± 0.073	2.97 ± 0.059	2.96 ± 0.051	2.79 ± 0.04
IVLSDQTQEFFLSSFDD [YJL039C/NUP192]	2.91 ± 0.12	2.89 ± 0.093	2.92 ± 0.057	3.25 ± 0.13

Sequence	protein stability index (doa10∆)	protein stability index (pdr5∆)	protein stability index (san1∆)	protein stability index (ubr1∆)
LLVDKDANGVSLFELIV [YJL039C/NUP192]	3.02 ± 0.051	3.05 ± 0.055	3.07 ± 0.049	3.25 ± 0.037
KVLLDSKDVQQIDYKLE [RPS7A]	2.69 ± 0.21	3.15 ± 0.15	3.31 ± 0.061	3.2 ± 0.12
NIPQQQQMQPPNSSANN [GAL11]	2.82 ± 0.062	2.9 ± 0.062	2.85 ± 0.048	2.75 ± 0.041
KPDVTYADVGGLDMQKQ [RPT3]	–	3.69 ± 0.14	3.47 ± 0.24	3.35 ± 0.21
SQCRLHELREKERISVA [PRE2]	2.25 ± 0.11	2.59 ± 0.097	2.87 ± 0.097	1.67 ± 0.04
FLLTQSKVSIEQRKEAA [RPN7]	2.27 ± 0.13	2.53 ± 0.15	2.42 ± 0.088	2.48 ± 0.058
EFETPTFLVSNDDEVSQ [RPN14]	2.69 ± 0.092	2.89 ± 0.084	2.72 ± 0.079	2.77 ± 0.13
MNDVINTEEVNRLEKEQ [LIN1]	2.99 ± 0.1	3.31 ± 0.17	3.27 ± 0.074	3.61 ± 0.085
TNKSKRPSITEAMMLKE [MED1]	2.91 ± 0.12	3.03 ± 0.087	2.89 ± 0.094	3.03 ± 0.084
TPNLWAEQPLPVSPLDI [RPS2]	1.41 ± 0.045	2.07 ± 0.06	2.31 ± 0.056	1.58 ± 0.066
SALQQIMYQQMLKYRRL [SNF2]	1.51 ± 0.045	1.43 ± 0.036	1.44 ± 0.091	1.35 ± 0.029
IERLTKRQFNNSYWLII [ITC1]	3.01 ± 0.077	2.62 ± 0.099	2.16 ± 0.097	2.13 ± 0.071
WESLAKKQNLSSHQRVF [SWP82]	2.77 ± 0.063	2.71 ± 0.071	2.83 ± 0.06	2.91 ± 0.053
RFNAKVSMVKRAIDSLI [CDC53]	1.86 ± 0.071	2.12 ± 0.074	2.17 ± 0.12	2 ± 0.042
TSLVANENDKIYLLFQS [YDL116W/NUP84]	2.37 ± 0.058	2.59 ± 0.05	2.42 ± 0.054	2.79 ± 0.035
AVEFESVPLRKGDRALL [BRR2]	3.16 ± 0.29	3.45 ± 0.14	2.98 ± 0.075	2.87 ± 0.11
NNIFKEFTSKIGFTIKE [SMC1]	2.34 ± 0.054	2.69 ± 0.063	2.76 ± 0.1	2.7 ± 0.046
IDMIADENGTNSAIANE [RPC37]	–	–	–	3.17 ± 0.11
YENSISKDLRSVWKPIA [IRR1]	2.58 ± 0.092	2.63 ± 0.11	2.57 ± 0.064	2.54 ± 0.05
MRFNIEIIADWIWDMNV [BRR2]	2.61 ± 0.066	2.12 ± 0.075	2.7 ± 0.088	2.39 ± 0.041
